Measured values reported in the Immune Epitope Database (IEDB).

How the values were obtained:
[1] = molecular target: HLA-A*29:02; assay: IEDB peptide-MHC binding, purified MHC/direct/fluorescence; filed as Kd, often an IC50 or EC50 that approximates it; ≥ and ≤ were set here for values at or beyond the usual limits of such assays; details: source organism: Escherichia coli O157:H7 str. EC869
[2] = molecular target: HLA-B*27:05; assay: as above
[3] = molecular target: HLA-B*48:01; assay: as above
[4] = molecular target: HLA-A*02:50; assay: as above; details: source organism: Escherichia coli O157:H7 str. EC869
[5] = molecular target: HLA-B*15:01; assay: as above
[6] = molecular target: HLA-B*07:02; assay: as above
[7] = molecular target: HLA-B*51:01; assay: as above; details: source organism: Escherichia coli O157:H7 str. EC869
[8] = molecular target: HLA-B*08:01; assay: as above; details: source organism: Escherichia coli O157:H7 str. EC869
[9] = molecular target: HLA-A*02:01; assay: as above; details: source organism: Escherichia coli O157:H7
[10] = molecular target: HLA-B*46:01; assay: as above
[11] = molecular target: HLA-A*24:03; assay: as above; details: source organism: Escherichia coli O157:H7 str. EC869
[12] = molecular target: HLA-B*38:01; assay: as above; details: source organism: Escherichia coli O157:H7 str. EC869
[13] = molecular target: HLA-B*44:02; assay: as above; details: source organism: Escherichia coli O157:H7 str. EC869
[14] = molecular target: HLA-A*26:03; assay: as above
[15] = molecular target: HLA-A*31:01; assay: as above
[16] = molecular target: HLA-A*02:12; assay: as above; details: source organism: Escherichia coli O157:H7 str. EC869
[17] = molecular target: HLA-B*40:01; assay: as above; details: source organism: Escherichia coli O157:H7
[18] = molecular target: HLA-A*01:01; assay: as above
[19] = molecular target: HLA-A*26:02; assay: as above; details: source organism: Escherichia coli O157:H7 str. EC869
[20] = molecular target: HLA-A*02:19; assay: as above; details: source organism: Escherichia coli O157:H7 str. EC869
[21] = molecular target: HLA-B*58:01; assay: as above
[22] = molecular target: HLA-B*18:01; assay: as above; details: source organism: Escherichia coli O157:H7 str. EC869
[23] = molecular target: HLA-A*03:01; assay: as above; details: source organism: Escherichia coli O157:H7
[24] = molecular target: HLA-A*11:01; assay: as above
[25] = molecular target: HLA-A*26:01; assay: as above; details: source organism: Escherichia coli O157:H7 str. EC869
[26] = molecular target: HLA-A*23:01; assay: as above; details: source organism: Escherichia coli O157:H7 str. EC869
[27] = molecular target: HLA-B*57:01; assay: as above
[28] = molecular target: HLA-A*69:01; assay: IEDB peptide-MHC binding, purified MHC/competitive/fluorescence; filed as Kd, often an IC50 or EC50 that approximates it; ≥ and ≤ were set here for values at or beyond the usual limits of such assays; details: source organism: Escherichia coli B171
[29] = molecular target: HLA-B*15:02; assay: IEDB peptide-MHC binding, purified MHC/direct/fluorescence; filed as Kd, often an IC50 or EC50 that approximates it; ≥ and ≤ were set here for values at or beyond the usual limits of such assays
[30] = molecular target: HLA-A*30:02; assay: IEDB peptide-MHC binding, purified MHC/competitive/radioactivity; filed as Kd, often an IC50 or EC50 that approximates it; ≥ and ≤ were set here for values at or beyond the usual limits of such assays; details: source organism: Dengue virus 2 Jamaica/1409/1983
[31] = molecular target: HLA-B*35:01; assay: IEDB peptide-MHC binding, purified MHC/direct/fluorescence; filed as Kd, often an IC50 or EC50 that approximates it; ≥ and ≤ were set here for values at or beyond the usual limits of such assays; details: source organism: Hepatovirus A
[32] = molecular target: HLA-C*12:03; assay: as above; details: source organism: Hepatovirus A
[33] = molecular target: HLA-C*06:02; assay: as above; details: source organism: Hepatovirus A
[34] = molecular target: HLA-B*15:09; assay: IEDB peptide-MHC binding, purified MHC/competitive/fluorescence; filed as Kd, often an IC50 or EC50 that approximates it; ≥ and ≤ were set here for values at or beyond the usual limits of such assays; details: source organism: Hepatovirus A
[35] = molecular target: HLA-B*08:01; assay: as above; details: source organism: Hepatovirus A
[36] = molecular target: HLA-A*02:01; assay: as above; details: source organism: Hepatovirus A
[37] = molecular target: HLA-A*02:03; assay: as above; details: source organism: Hepatovirus A
[38] = molecular target: HLA-A*30:01; assay: as above; details: source organism: Hepatovirus A
[39] = molecular target: HLA-B*15:17; assay: as above; details: source organism: Hepatovirus A
[40] = molecular target: HLA-A*26:02; assay: as above; details: source organism: Hepatovirus A
[41] = molecular target: HLA-A*68:02; assay: as above; details: source organism: Hepatovirus A
[42] = molecular target: HLA-B*39:01; assay: as above; details: source organism: Hepatovirus A
[43] = source organism: Escherichia coli O157:H7
[44] = source organism: Escherichia coli O157:H7 str. EC869

ETIGLVRAL
Kd [1]: ≥ 20000 nM | Kd [2, 43]: ≥ 20000 nM | Kd [3, 43]: ≥ 20000 nM | Kd [4]: ≥ 20000 nM | Kd [5, 43]: 1000 nM | Kd [6, 43]: ≥ 5000 nM | Kd [7]: ≥ 20000 nM | Kd [8]: ≥ 20000 nM | Kd [9]: ≥ 20000 nM | Kd [10, 43]: ≥ 20000 nM | Kd [11]: ≥ 20000 nM | Kd [12]: ≥ 20000 nM | Kd [13]: ≥ 20000 nM | Kd [14, 44]: ≤ 1 nM | Kd [15, 43]: ≥ 20000 nM | Kd [16]: ≥ 20000 nM | Kd [17]: ≥ 20000 nM | Kd [18, 43]: ≥ 20000 nM | Kd [19]: ≤ 1 nM | Kd [20]: ≥ 20000 nM | Kd [21, 43]: ≥ 20000 nM | Kd [22]: ≥ 20000 nM | Kd [23]: ≥ 20000 nM | Kd [24, 43]: ≥ 20000 nM | Kd [25]: 4 nM | Kd [26]: ≥ 20000 nM | Kd [27, 44]: ≥ 20000 nM | Kd [28]: 0.6 nM

SQHNYRPGY
Kd ([10]; source organism: Dengue virus): ≥ 20000 nM | Kd ([29]; source organism: Dengue virus): 282 nM | Kd [30]: 777 nM

YMYAVSGAL
Kd [31]: 449 nM | Kd ([2]; source organism: Hepatovirus A): ≥ 20000 nM | Kd ([3]; source organism: Hepatovirus A): 15.6 nM | Kd ([5]; source organism: Hepatovirus A): 11.6 nM | Kd ([6]; source organism: Hepatovirus A): ≥ 20000 nM | Kd [32]: 231 nM | Kd ([10]; source organism: Hepatovirus A): 1770 nM | Kd ([14]; source organism: Hepatovirus A): ≥ 20000 nM | Kd ([15]; source organism: Hepatovirus A): ≥ 20000 nM | Kd ([29]; source organism: Hepatovirus A): 5 nM | Kd ([18]; source organism: Hepatovirus A): ≥ 20000 nM | Kd ([21]; source organism: Hepatovirus A): ≥ 20000 nM | Kd ([24]; source organism: Hepatovirus A): ≥ 20000 nM | Kd [33]: ≥ 20000 nM | Kd ([27]; source organism: Hepatovirus A): ≥ 20000 nM | Kd [34]: 322 nM | Kd [35]: 830 nM | Kd [36]: 3.7 nM | Kd [37]: 1.6 nM | Kd [38]: 4140 nM | Kd [39]: 181 nM | Kd [40]: 4580 nM | Kd [41]: 2120 nM | Kd [42]: 1.5 nM
